The values below come from the supplement of paper PMC11502859.
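Further: lentiviral eGFP-IRES-mCherry reporter pool sorted by FACS 96 h post-transduction, gated on mCherry-high cells, Illumina read counts normalized per million, median across four biological replicates.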

The series has as its system HEK293T. Put plainly: median enrichment of reporter reads in eGFP-reduced (low/intermediate) vs eGFP-high sorted cells (eGFP-extension fusion abundance) (ratio); higher = stronger loss of eGFP-fusion protein abundance (more destabilising extension).
For YHH [FAM229B], the median enrichment amounted to 0.611. With YHPGL [GORASP1] the figure was 0.424. In the case of “YHPHSSSSPPNRLGSRGLLCKPTGQLWLRAHLLQRVPQPLLNLDFCPNPLPVTRSISLSLLSNGAWSTEASEAIALLAEVKRT [SLC18A3]”, the median enrichment was determined as 4.57.

With YHPSG [FAM183A], the median enrichment was determined as 0.527. In the case of YHQNLCQNTKECA [TLL1], the median enrichment was 0.773.

In the case of “YHRPVPGATWGPCGGKPFPPPRGDAQPPSGPPFGHHQVPKVPQEASTLHARPASISLSFPVWPSFEGHVRWRSQARQTLTRGL [PLPP7]”, the median enrichment came out at 8.18.

As to YIAD [FUCA2], the median enrichment was 0.607.

For the substance “YICLASPPSVFSTQRRREPAVPCRREEGLLDPRLSPSALRTPCPDSLLMVGPLCSSLPVGSLSSLTWIRFGFSTSLPQRKDYS [KRT13]”, the median enrichment is 6.15. Regarding “YIFYSHSVVQSSALGIYLCSQRSNSHLLYCLCLKEFESFLIFIIHLRTRDPCLAVWSKADYAAWRQDSDRASERAKSCQKETE [GABRA1]”, the median enrichment was 10.4. Then YIIHCIFYFYHILHIQQNLYVVIGII [ELMOD2], with 7.8; and YILDLFYFLWSKFWCD [MIER1], with 7.56. With YILKTQPSSKRHAPPHSPGPGRGGCSS [ADORA1] the figure was 2.57; with YILLADHYCGLKDDHLV [WFDC9], 7.3. Then YILLKVF [LY75], with 4.38; and “YILNLVCRPSRGIKRLALVVKNKADSQTRSDFCPCSSFDVLSVALFLIASSTCKMLFTFCLG [DAB2]”, with 7.19.

Take YILPEDKEKSKYCIGT [IRAK3]: the median enrichment is 9.91. Take YILYNCEINLR [OR4F4]: the median enrichment is 5.6. With YIMDWDILYFSC [UBA5] the figure was 13. Regarding YIMRHTV [TBC1D32], the median enrichment stood at 5.87.

Consider YIMYYPDLVGKVLS [OPRM1], for which the median enrichment came to 11.7.

As to YINEENKRS [CLEC7A], the median enrichment is 0.716. YINKIRRGSETEKEKAKDWFVCLISFC [NR2F2]: the median enrichment came out at 9.01. As to YIPNILGL [RASEF], the median enrichment was 10.1.

Consider YIPVSIQKSNKKFSVKCAILLCVL [RPL11], for which the median enrichment was 0.764. Take YIRRHH [IFITM2]: the median enrichment worked out at 9.67. Then YISHQKLRQEKQK [RASSF8], with 3.3. With YISHVNLPER [MSMO1] the figure was 15.7. Turning to YISLFVSMRCPTGPI [CADM1], the median enrichment was determined as 15.7. Regarding YISTLFLKLTFQCH [GPNMB], the median enrichment is 7.14.

As to “YIWLFMHCGMCSSFSVFRYKVLYQSVIYKVYQHKCW [MLH1]”, the median enrichment came out at 23.5.

For the substance YKCEECGKAFKWSSHLTIH [ZNF93], the median enrichment came out at 6.32.

“YKCGKAFTKSSYCVQHLKFNTEQMQYKCNDSGRTFIILEGL [ZNF736]”: the median enrichment was 22.3. Then YKE [DCAF17], with 0.608; and “YKGAEEGWSGWAGGPTSSPQHLPPTQLGQRGQDVCLPLRDRCLCPHTATGV [SEMA3G]”, with 2.63.

In the case of YKGRAQQCK [IRX2], the median enrichment came out at 0.955. With “YKHESFIHTFRQAREVQQVTAKGGNCSHLPPILPAENPDCIQCPQCSHHFAPKVAEQHIPKCKTIKNCLPPLRKHYS [ZC2HC1C]” the figure was 0.72; with YKISPLPACCKVT [CAMKK2], 11.5; with YKKEKKAKKKK [IQCA1], 0.422. YKKRCCLGLVGGACFS [HIGD1A]: the median enrichment is 3.33. Then YKKRLLLGLDR [Degron FEM1B], with 9.09; and YKKVGTMRGRGL [Degron APPBP2], with 16.9; and YKL [OR6C2], with 0.678. With YKLGLCFLLVTEDWVAP [SOAT1] the figure was 9.15. With YKLLKRFICVLLTRFFLFVACFGN [SKIL] the figure was 9.42; with YKLVLCSG [ZDBF2], 6.14; with YKMIVLTPYTNVLLLALIKLLEG [MAX], 15.5.

In the case of YKNQNGLR [ADGRB3], the median enrichment stood at 0.651. Then YKP [ATP6V1A], with 0.175; and “YKPGGSSHSCSQGHWARAAHAQEARFEGICEAAACCCTCAFSLPLPSLSSHGGVRSCPCSESTFPAIPGAGGACASAIPCDQA [TSSK6]”, with 3.81.

Take “YKPQAPLADGRQGEKRRSSWTSETTVELRREAT [IGFL3]”: the median enrichment came out at 1.72.

Take YKPRDGGCLAMAGR [DMRTC2]: the median enrichment amounted to 0.676. Then YKRFNFQ [IGSF6], with 1.72.

On to YKRIS [KCNN2], for which the median enrichment is 1.05.

“YKRPWSGPTLRPSISQALSAVIPRTQWAPCTPVSGAVRLGYIVNSASTERLALRASSESSSSGTPPKPTPPGTPLSGIPAKRR [PRRT1]”: the median enrichment was determined as 1.15. As to YKRSLADPSL [KCNQ3], the median enrichment was found to be 0.769. Then YKSDCSVRIYIYRFQSNKWGNR [CCNG2], with 4.91; and YKSKNIFLKVMMHSFGW [CENPW], with 4.27; and YKTPCSAILISYR [APOO], with 4.54.

YKVPLANCLEAQHNPKALFR [HIST1H1E]: the median enrichment was 6.29. “YKWQQNLTPRPANSASLVTLFWLLDGFHSSLGFVCEYCLLCFVFNCNG [OR7E24]”: the median enrichment was determined as 6.78. With YKYTLTERDNRQRGSVAEDPLLCLY [TNIP3] the figure was 7.19; with “YLARPDPLGPFFFADNHCPAASGTSGSQGTQSSLLAVDFPLLLEPPIKEIQRDSCRPEAEHTFMAGALRGVLDPAPGDTIHFY [PLOD1]”, 9.08; with YLCISRAHTYIVAYSQHGSRPALLI [RANBP9], 2.61. Then YLDHDLVQ [TRAT1], with 0.456; and YLDQSKCGLNLLVDQC [SLC25A3], with 13.3; and “YLEQMETPWGAGSGSPAPSQTLQCQKQQQNETQPPPTTATTRRMIQQVFLKN [GRIA1]”, with 2.38. As to YLEYIFV [CEP192], the median enrichment is 4.56. Then YLFFFFLIEVLVL [FAM160A1], with 25.1; and “YLICTNMTQMFSKITGKPLTSICVSQLTEKKITCSSFIISHWNII [SENP7]”, with 3.44. Turning to YLISYYIF [PCDHB8], the median enrichment worked out at 5.

For the substance YLKKTVLSAMTLYIKGVLFC [PLAAT3], the median enrichment is 13.8. In the case of YLKNMYPL [ERCC5], the median enrichment stood at 7.72. Then YLL [TOR1AIP2], with 3.21; and YLLCVVGGGYYLYQPSVCHEPVGKSDIFII [IL1RAP], with 6.77.

In the case of YLLKYRNLNNVKLD [TJP1], the median enrichment worked out at 4.45.

“YLRTLPFFPLSSLPLPFLPIYPFPSSKSTQGEENKMTTQDLVAKILHSKSSFV [FGF12]”: the median enrichment amounted to 9.45. Turning to YLSGLSVL [MCOLN3], the median enrichment was 19.

YLSNH [WDR27]: the median enrichment is 3.24. Then YLSSAPVVVVVLNFRI [ZSCAN21], with 16.1. On to YLSVYLSIYLSIYLSIYVYLSCIYTRL [AK9], for which the median enrichment came out at 9.52.

As for “YLTFPAESVARGKVTIYAEMICLVPILCSTSVFQKFLINKLI [CDCA2]”, the median enrichment was found to be 4.06.

In the case of “YLTLHLSSGCQGRRRSQQAPLFCSLSPEAEHMFSEKLLLRTF [RAF1]”, the median enrichment came to 6.79. For the substance YLTLPIS [OR5AS1], the median enrichment was 15.4. With YLVIHAFFPGQGSRVTRPPETSQEARALFK [SNX19] the figure was 13.6; with YLYHYSRSSSQHHLLATWDV [GCG], 12.4.

Turning to “YMCPTDPGTFLPQCCACKYTVKLSLYHFDRGED [GLRA2]”, the median enrichment was 11.1. With YMFVWN [STKLD1] the figure was 6.18; with YMHCSGS [STT3B], 2.33. Consider YMILKPETI [TRIP11], for which the median enrichment is 4.3.

Consider YMKLDI [ARF4], for which the median enrichment stood at 1.7. Consider YMQKWIK [KCNMB2], for which the median enrichment turned out to be 11.9. As to YMQRPRRAALTTRFIF [EWSR1], the median enrichment worked out at 6.81. Then YMSEHGLSQACLHGIRLATPARPPGWFFSS [TJP2], with 4.38; and YMSEVQTLKKLAF [SLC7A13], with 4.37.

For YMSF [PPP1CC], the median enrichment stood at 1.47.

YNEK [PJVK]: the median enrichment is 0.295. Then YNFFHLRNYCDL [CHD6], with 19.1.

On to “YNIRKKATSMVINGRKAGELDSAVLLTGELWSSAPVYGPCRLVGWQMLA [DPPA4]”, for which the median enrichment stood at 10.4. On to YNIVYVFCHL [KIAA1586], for which the median enrichment is 8.8. With YNIYKLWVLDGLS [RBM41], the median enrichment was 3.9. With YNIYSYDKDT [HCRTR2] the figure was 5.01; with YNLIASTLKDKTSNSHLL [KIF9], 1.28. With YNLLLIIISEIISGSPWTTS [ZIC5] the figure was 5.16; with “YNMTYSYSSLLSPLYSFFFNIFMTFKSLLYSLARKCTFFLLV [ADAMTS12]”, 4.84; with YNPFALMSLPFVT [SIX2], 1.36.

“YNQGSVTPCHAPTVEIPPLLKFFMVVSLPGSLMLS [KCNS1]”: the median enrichment turned out to be 11.7. On to YNSEVNVLKYNY [TEFM], for which the median enrichment is 0.662. Then “YNWKLSTHRKRSLLGRWPPQCLEKNLWASTAAREELLQARGRKGENTNSLVVSGVGG [S1PR1]”, with 5.24. Then YNYLLNQDKHAFLLPWFYL [NCKAP1], with 8.38. Then YNYLSPL [FAM104B], with 2.29. In the case of “YPAALPGGGGIKRPESPGCPRRDANHPVLSTGPSSLFHPHFC [E2F7]”, the median enrichment came to 6.7. Then YPAHLASLFSF [ECD], with 2.85; and YPALLPSDGHPSRGLSHTVPLRSA [CTDSP2], with 9.24.
